From the supplement of paper PMC7877785
± gives the uncertainty stated by the source.

Test: self-splicing fitness, log relative to wild type (ln ratio); higher = more splicing; Tetrahymena group I intron in knt gene, E. coli kanamycin selection, DiMSum; sequences stand for … in CUCUCU…GGAGGGAAAAGUUAUCAGGCAUGCACCUGGUAGCUAGUCUUUAAACCAAUAGAUUGCAUCGGUUUAAAAGGCAAGACCGUCAAAUUGCGGGAAAGGGGUCAACAGCCGUUCAGUACCAAGUCUCAGGGGAAACUUUGAGAUGGCCUUGCAAAGGGUAUGGUAAUAAGCUGACGGACAUGGUCCUAACCACGCAGCCAAGUCCUAAGUCAACAGAUCUUCUGUUGAUAUGGAUGCAGUUCACAGACUAAAUGUCGGUCGGGGAAGAUGUAUUCUUCUCAUAAGAUAUAGUCGGACCUCUCCUUAAUGGGAGCUAGCGGAUGAAGUGAUGCAACACUGGAGCCGCUGGGAACUAAUUUGUAUGCGAAAGUAUAUUGAUUAGUUUUGGAGUACUCGUGGUCG
Summary of the method: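 Colonies from six replicate transformations of E. coli BL21(DE3) were pooled and amplicon-sequenced on an Illumina HiSeq 2500. The library placed an intron with all eight P1ex-region nucleotides randomised inside the knt kanamycin-resistance gene on pET-22b(+), and cells grew overnight at 37°C or 30°C on LB agar with or without 25 μg/mL kanamycin (plus 100 μg/mL carbenicillin, 50 μM IPTG, 0.2% rhamnose). Fitness is the DiMSum error-weighted combination of wild-type-normalised replicate fold changes, kanamycin versus none.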

Sequence | self-splicing fitness (ln) (30 °C) | self-splicing fitness (ln) (37 °C)
GUACAGCAAUAUUACGUGGA | -4.34 ± 0.29 | -2.52 ± 0.14
AGACAGCAAUAUUACGGCAU | -0.544 ± 0.052 | -0.211 ± 0.066
UGGUAGCAAUAUUACGUCAA | -2.31 ± 0.19 | -0.773 ± 0.15
GUAUAGCAAUAUUACGUAGU | -2.17 ± 0.096 | -1.26 ± 0.095
GGGGAGCAAUAUUACGCAGU |  | -1.35 ± 0.36
GGUGAGCAAUAUUACGACGU | -0.578 ± 0.13 | -0.013 ± 0.15
UGUUAGCAAUAUUACGUACG | -0.624 ± 0.17 | 0.229 ± 0.22
GCGAAGCAAUAUUACGAGAU | -2.89 ± 0.2 | -1.86 ± 0.22
GCUAAGCAAUAUUACGUGUA | -1.29 ± 0.087 | -0.0918 ± 0.088
GCCCAGCAAUAUUACGCUUC | -1.18 ± 0.089 | -1.33 ± 0.091
AAUUAGCAAUAUUACGAUGU | -0.358 ± 0.078 | 0.171 ± 0.11
AAGCAGCAAUAUUACGGUUG | -3.08 ± 0.14 | -2.01 ± 0.15
GGUGAGCAAUAUUACGUUGG | -3.52 ± 0.32 | -0.982 ± 0.36
CUCCAGCAAUAUUACGGUCC | -3.11 ± 0.17 | -2.83 ± 0.38
AUUAAGCAAUAUUACGUGGU | -2.42 ± 0.16 | -2.29 ± 0.19
UAGGAGCAAUAUUACGCCAU | -3.74 ± 0.43 | -2.72 ± 0.48
AGGUAGCAAUAUUACGGGGC | -3.748 ± 0.033 | -2.96 ± 0.043
CUCCAGCAAUAUUACGUUAA | -3.9 ± 0.25 | -2.68 ± 0.36
CACUAGCAAUAUUACGCCGA | -2.8 ± 0.21 | -1.49 ± 0.17
CGCGAGCAAUAUUACGUAGA | -3.09 ± 0.15 | -2.93 ± 0.23
CUGCAGCAAUAUUACGGAAA | -2.27 ± 0.21 | -1.56 ± 0.38
UGCGAGCAAUAUUACGGGAC | -3.69 ± 0.39 | -1.88 ± 0.23

Sequence | self-splicing fitness (ln) (30 °C) | self-splicing fitness (ln) (37 °C)
GCUAAGCAAUAUUACGGGCC |  | -2.28 ± 0.39
CUUGAGCAAUAUUACGAGGU | -2.39 ± 0.19 | -2.42 ± 0.22
CGUUAGCAAUAUUACGCUAC | -1.48 ± 0.24 | 
GUGCAGCAAUAUUACGUAGC | -1.44 ± 0.17 | -0.976 ± 0.16
AUAUAGCAAUAUUACGGAGU | -2.29 ± 0.13 | -1.82 ± 0.2
UAGUAGCAAUAUUACGGGUG | -0.96 ± 0.071 | -0.773 ± 0.079
GUGUAGCAAUAUUACGGUAC | -2.1 ± 0.22 | -1.43 ± 0.25
GGGUAGCAAUAUUACGACGG |  | -1.18 ± 0.44
UCUCAGCAAUAUUACGAACC | -1.84 ± 0.18 | -1.69 ± 0.28
GCCUAGCAAUAUUACGCUAC | -2.7 ± 0.21 | -2.81 ± 0.36
UCGCAGCAAUAUUACGUCGG | -2.74 ± 0.18 | -1.79 ± 0.19
CUACAGCAAUAUUACGAACU | -4.38 ± 0.24 | -2.02 ± 0.25
AGACAGCAAUAUUACGCAUG | -2.45 ± 0.13 | -1.23 ± 0.11
GCCUAGCAAUAUUACGCUGU | -0.847 ± 0.09 | 0.254 ± 0.096
CCCUAGCAAUAUUACGACAU | -3.809 ± 0.024 | -2.93 ± 0.039
ACGAAGCAAUAUUACGUGCU | -2.96 ± 0.12 | -1.84 ± 0.14
CGUGAGCAAUAUUACGGGAC |  | -1.88 ± 0.41
UUGUAGCAAUAUUACGACUU | -0.894 ± 0.3 | 0.769 ± 0.36
GCGCAGCAAUAUUACGGUCG | -2.26 ± 0.23 | -1.81 ± 0.22
GGGCAGCAAUAUUACGCUCU | -3.55 ± 0.44 | 
GUACAGCAAUAUUACGACAA | -1.77 ± 0.14 | -0.826 ± 0.12
UUAUAGCAAUAUUACGUGGC | -3.14 ± 0.37 | -2.45 ± 0.39

Sequence | self-splicing fitness (ln) (30 °C) | self-splicing fitness (ln) (37 °C)
GCCGAGCAAUAUUACGGGAA | -1.01 ± 0.073 | -0.813 ± 0.088
CCCCAGCAAUAUUACGCGGU | -3.91 ± 0.13 | -2.17 ± 0.15
UGUCAGCAAUAUUACGCCCC | -0.691 ± 0.29 | 0.0501 ± 0.3
GCUGAGCAAUAUUACGUUGC | -4.04 ± 0.2 | -2.53 ± 0.17
AAUCAGCAAUAUUACGGCCU | 0.091 ± 0.13 | 0.245 ± 0.15
AAGCAGCAAUAUUACGACAC | -1.25 ± 0.058 | -0.831 ± 0.073
CUAGAGCAAUAUUACGCGAU | -0.892 ± 0.084 | -0.253 ± 0.11
AGUAAGCAAUAUUACGGGAG | -3.4 ± 0.2 | -2.43 ± 0.2
CGUAAGCAAUAUUACGUCUU | -3.7 ± 0.22 | -1.37 ± 0.14
AUAAAGCAAUAUUACGCGCU | -0.372 ± 0.1 | -0.603 ± 0.12
CUUGAGCAAUAUUACGGAUC |  | -1.45 ± 0.31
UCACAGCAAUAUUACGUAUU | -3.5 ± 0.15 | -2.54 ± 0.14
CGGUAGCAAUAUUACGAUUC | -2.84 ± 0.17 | -1.69 ± 0.13
UGUGAGCAAUAUUACGGACA | -1.44 ± 0.13 | 0.089 ± 0.13
CCAGAGCAAUAUUACGUCGU | -3.93 ± 0.24 | -2.19 ± 0.21
ACGGAGCAAUAUUACGCUAG | -2.63 ± 0.25 | -2.16 ± 0.34
AAGCAGCAAUAUUACGCUUC | -2.97 ± 0.18 | -2.81 ± 0.26
ACCUAGCAAUAUUACGAGAG | -2.34 ± 0.13 | -0.462 ± 0.08
CCGUAGCAAUAUUACGUGCU |  | -1.98 ± 0.19
CCAUAGCAAUAUUACGCAGU | -2.94 ± 0.14 | -3.37 ± 0.42
AUUGAGCAAUAUUACGGCCG | -3.13 ± 0.26 | -0.636 ± 0.18
GACGAGCAAUAUUACGGCGC | -1.79 ± 0.093 | -0.8 ± 0.11

Sequence | self-splicing fitness (ln) (30 °C) | self-splicing fitness (ln) (37 °C)
UCUCAGCAAUAUUACGACAC | -4.22 ± 0.26 | -3.33 ± 0.33
GCUCAGCAAUAUUACGGAAA | -1.62 ± 0.15 | -0.337 ± 0.12
UUAAAGCAAUAUUACGAGGC | -3.94 ± 0.37 | -2.36 ± 0.29
GAGGAGCAAUAUUACGAUCA | -2.5 ± 0.22 | -1.59 ± 0.19
AAGUAGCAAUAUUACGCAUG | -2.05 ± 0.069 | -0.492 ± 0.074
UCCAAGCAAUAUUACGGAUA | -2.57 ± 0.13 | -1.22 ± 0.089
UCCAAGCAAUAUUACGUAAC | -3.57 ± 0.17 | -1.41 ± 0.15
AUCAAGCAAUAUUACGCGAC | -2.01 ± 0.23 | -1.58 ± 0.22
UAUAAGCAAUAUUACGAAAA | -1.72 ± 0.31 | -1.27 ± 0.31
GGACAGCAAUAUUACGCACU | -1.12 ± 0.086 | -0.6 ± 0.13
CAACAGCAAUAUUACGUUAC | -3.99 ± 0.21 | -2.44 ± 0.14
UCCCAGCAAUAUUACGCCUU | -3.44 ± 0.2 | -1.28 ± 0.15
UAAGAGCAAUAUUACGCCGC | -2.81 ± 0.41 | 
UCCUAGCAAUAUUACGUUAA | -3.69 ± 0.28 | -2.32 ± 0.26
GAUGAGCAAUAUUACGGGGG | -4.46 ± 0.34 | -1.44 ± 0.25
CGUGAGCAAUAUUACGUAAA |  | -2.03 ± 0.33
UACAAGCAAUAUUACGGUAC | -4.41 ± 0.31 | -3.1 ± 0.33
CAUGAGCAAUAUUACGCCGG | -3.79 ± 0.22 | -2.14 ± 0.26
AGACAGCAAUAUUACGGUAC | -3.29 ± 0.17 | -2.41 ± 0.17
GUCCAGCAAUAUUACGGGUU | -1.58 ± 0.07 | -1.03 ± 0.073
